Assay [1] deals with T1, Recombinant TLR4/MD2 complex (R&D Systems 3146-TM-050/CF) (UniProt O00206 24-631; Q9Y6Y9 19-160).
T1 construct: Toll-like receptor 4 chain of the bought recombinant TLR4/MD2 complex; neither species nor construct limits are stated; MD2 (lymphocyte antigen 96) chain of the bought recombinant TLR4/MD2 complex; also called TLR4/MD2 receptor; source: bought: R&D Systems
Briefly: SPR; Biacore X100; TLR4/MD2 complex immobilised on a CM5 chip by amine coupling (1,223.9 RU); IFI16 alone 31.25-1,000 nM flowed at 30 μl/min, 25°C, HBS-EP+ buffer; association 120 s, dissociation 180 s; 1:1 binding model. To be noted: both partners purified. In general terms: In SPR one partner is held on a chip, and binding of the other changes the refractive index at the surface.

For assay [2], the target named is T1, Recombinant TLR4/MD2 complex (R&D …). Briefly: SPR; Biacore X100; TLR4/MD2 complex immobilised on a CM5 chip by amine coupling (1,223.9 RU); analyte is IFI16 pre-complexed with LPS-EB (IFI16/LPS-EB complex), 31.25-1,000 nM, 30 μl/min, 25°C, HBS-EP+ buffer; association 120 s, dissociation 180 s; 1:1 binding model. The following applies: both partners purified.

T1 sequence (O00206 24-631, chain 1 of 2): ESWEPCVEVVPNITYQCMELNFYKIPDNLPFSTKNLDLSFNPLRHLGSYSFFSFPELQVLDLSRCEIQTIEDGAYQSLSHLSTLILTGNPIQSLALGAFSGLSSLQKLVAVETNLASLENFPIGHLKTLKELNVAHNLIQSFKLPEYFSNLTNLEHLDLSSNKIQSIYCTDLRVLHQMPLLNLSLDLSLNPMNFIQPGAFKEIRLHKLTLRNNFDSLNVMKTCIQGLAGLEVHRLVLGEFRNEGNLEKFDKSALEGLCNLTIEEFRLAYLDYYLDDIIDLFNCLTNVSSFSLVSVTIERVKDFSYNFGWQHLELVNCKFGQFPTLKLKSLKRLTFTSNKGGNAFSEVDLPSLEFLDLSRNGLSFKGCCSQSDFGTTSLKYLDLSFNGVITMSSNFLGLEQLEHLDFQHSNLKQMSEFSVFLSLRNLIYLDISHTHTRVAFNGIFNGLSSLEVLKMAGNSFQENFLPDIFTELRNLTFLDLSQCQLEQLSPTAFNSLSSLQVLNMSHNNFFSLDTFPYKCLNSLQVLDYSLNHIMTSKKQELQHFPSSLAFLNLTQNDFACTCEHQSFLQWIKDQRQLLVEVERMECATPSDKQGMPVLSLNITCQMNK
T1 sequence (Q9Y6Y9 19-160, chain 2 of 2): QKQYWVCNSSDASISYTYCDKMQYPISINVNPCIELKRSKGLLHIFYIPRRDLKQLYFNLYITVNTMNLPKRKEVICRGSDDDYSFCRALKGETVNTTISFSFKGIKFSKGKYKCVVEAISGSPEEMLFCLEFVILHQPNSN

B1: human recombinant IFI16 protein (natural protein, UniProt Q16666-2 1-729, looked up)
chain: MGKKYKNIVLLKGLEVINDYHFRMVKSLLSNDLKLNLKMREEYDKIQIADLMEEKFRGDAGLGKLIKIFEDIPTLEDLAETLKKEKLKVKGPALSRKRKKEVDATSPAPSTSSTVKTEGAEATPGAQKRKKSTKEKAGPKGSKVSEEQTQPPSPAGAGMSTAMGRSPSPKTSLSAPPNSSSTENPKTVAKCQVTPRRNVLQKRPVIVKVLSTTKPFEYETPEMEKKIMFHATVATQTQFFHVKVLNTSLKEKFNGKKIIIISDYLEYDSLLEVNEESTVSEAGPNQTFEVPNKIINRAKETLKIDILHKQASGNIVYGVFMLHKKTVNQKTTIYEIQDDRGKMDVVGTGQCHNIPCEEGDKLQLFCFRLRKKNQMSKLISEMHSFIQIKKKTNPRNNDPKSMKLPQEQRQLPYPSEASTTFPESHLRTPQMPPTTPSSSFFTKKSEDTISKMNDFMRMQILKEGSHFPGPFMTSIGPAESHPHTPQMPPSTPSSSFLTTLKPRLKTEPEEVSIEDSAQSDLKEVMVLNATESFVYEPKEQKKMFHATVATENEVFRVKVFNIDLKEKFTPKKIIAIANYVCRNGFLEVYPFTLVADVNADRNMEIPKGLIRSASVTPKINQLCSQTKGSFVNGVFEVHKKNVRGEFTYYEIQDNTGKMEVVVHGRLTTINCEEGDKLKLTCFELAPKSGNTGELRSVIHSHIKVIKTRKNKKDILNPDSSMETSPDFFF
notes: IFI16, human, full-length recombinant protein; The domains were cloned in pET30a and made 'following the same procedure as that for the full-length protein'; In assay a3 and in part of a4 the protein was pre-incubated O/N at 4°C with LPS-EB, which is not a protein; also called full-length IFI16; endotoxin-free IFI16; source: recombinant, produced as previously described [24], purified, endotoxins …
Take B1: in assay [1], the dissociation constant (Kd) (commonly the constant that tells how readily two partners part at equilibrium) came out at 677 nM, the koff (commonly a measure of how fast the partners let go of each other) turned out to be 0.00614 s⁻¹ and the kon (usually the second-order rate constant of association) is 9070 M⁻¹ s⁻¹. Further, in assay [2], the equilibrium dissociation constant (Kd) is 4010 nM, the koff is 0.0143 s⁻¹ and the kon was 3570 M⁻¹ s⁻¹.
